US20130344070A1

Biological target: human CCR2 (CC-Chemokine Receptor 2) (human) (UniProt P41597)
Test: cell-based or functional assay

Sequence of human CCR2 (CC-Chemokine Receptor 2) (human) (P41597 whole entry): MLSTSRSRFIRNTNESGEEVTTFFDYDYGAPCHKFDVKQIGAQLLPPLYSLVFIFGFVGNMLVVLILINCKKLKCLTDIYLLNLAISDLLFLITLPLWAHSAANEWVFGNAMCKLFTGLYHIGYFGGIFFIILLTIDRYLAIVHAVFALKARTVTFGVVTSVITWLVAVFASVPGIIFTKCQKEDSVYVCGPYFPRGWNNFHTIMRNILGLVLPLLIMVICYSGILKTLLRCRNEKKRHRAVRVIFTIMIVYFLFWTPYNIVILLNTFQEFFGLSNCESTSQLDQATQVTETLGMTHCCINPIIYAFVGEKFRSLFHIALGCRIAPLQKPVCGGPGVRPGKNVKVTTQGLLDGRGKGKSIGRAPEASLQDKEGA

IC50 in calcium flux assay using human THP-1 cells, ligand MCP-1 (2.5 nM): 0.25 nM
IC50 in calcium flux assay using human THP-1 cells, ligand MCP-3 (22 nM): 0.11 nM
IC50 in calcium flux assay using human THP-1 cells, ligand MCP-5 (0.43 nM): 0.18 nM
IC50 in chemotaxis assay using human THP-1 cells, ligand MCP-1 (3 nM): 0.31 nM
IC50 in chemotaxis assay using human THP-1 cells, ligand MCP-2 (6.7 nM): 0.46 nM
IC50 in chemotaxis assay using human THP-1 cells, ligand MCP-3 (1.1 nM): 1.83 nM
IC50 in chemotaxis assay using human THP-1 cells, ligand MCP-4 (35 nM): 0.84 nM
IC50 in chemotaxis assay using human THP-1 cells, ligand MCP-5 (0.65 nM): 0.37 nM
IC50 on MCP-1 induced THP-1 cell migration: 0.309 nM
IC50 on MCP-2 induced THP-1 cell migration: 0.459 nM
IC50 on MCP-3 induced THP-1 cell migration: 1.83 nM
IC50 on MCP-4 induced THP-1 cell migration: 0.843 nM
IC50 on mouse MCP-5 induced THP-1 cell migration: 0.368 nM
B1: MLN1202 (Takeda) (antibody, INN chains, looked up, V domains shown)
VH: EVQLVESGGGLVKPGGSLRLSCAASGFTFSAYAMNWVRQAPGKGLEWVGRIRTKNNNYATYYADSVKDRFTISRDDSKNTLYLQMNSLKTEDTAVYYCTTFYGNGVWGQGTLVTVSS
VL: DVVMTQSPLSLPVTLGQPASISCKSSQSLLDSDGKTFLNWFQQRPGQSPRRLIYLVSKLDSGVPDRFSGSGSGTDFTLKISRVEAEDVGVYYCWQGTHFPYTFGQGTRLEIK
